The values that follow come from PMC4530576.

The target of data set [1] is T1, Spen RRM domains (Spen RRMs) (UniProt Q96T58 335-620).
T1 sequence: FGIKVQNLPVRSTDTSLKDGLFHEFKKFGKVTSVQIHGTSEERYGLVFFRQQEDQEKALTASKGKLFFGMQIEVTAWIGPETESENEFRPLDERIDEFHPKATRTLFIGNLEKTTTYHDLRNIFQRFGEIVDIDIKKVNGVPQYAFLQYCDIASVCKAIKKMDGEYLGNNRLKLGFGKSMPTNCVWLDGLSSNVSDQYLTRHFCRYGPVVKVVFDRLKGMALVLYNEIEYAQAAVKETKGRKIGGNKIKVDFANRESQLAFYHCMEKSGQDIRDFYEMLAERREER
The experiment in a line: EMSA. In general terms: In EMSA bound probe runs differently from free probe, usually more slowly.

Data set [2] concerns the target T1, Spen RRM domains (Spen RRMs). Description: EMSA. This is another data set of the same source.

Where two headings read alike, the source gives them in different places.

B1: XCR-XC dimer (Xist A-repeat dimer), synthetic (structured_RNA)
RNA: UUGCCCAUCGGGGCCUCGGAUACCUGCUUUAAAUUGCCCAUCGGGGCCUCGGAUACCUGCUUUAC
As to B1, the binding result in data set [1] was “binds”.

B2: H12-H13 SRA, synthetic (structured_RNA)
RNA: GCAGGUAUGUGAUGACAUCAGCCGACGCCUGGCACUGCUGCAGGAACAGUGGGCUGGAGGAAAGUUGUCAAUACCUGU
On to B2, for which, in data set [2], the binding result is “binds”.
